Measured values published in patent US20250320281A1.

Legend:
Experiment in all cases: cell-based or functional assay
[1] = molecular target: HIV-1 Env of isolate MGRM-G-015 (HIV-1)
[2] = molecular target: HIV-1 Env of pseudovirus MGRM-G-024 (HIV-1, clade G isolate MGRM-G-024)
[3] = molecular target: HIV-1 Env of isolate THR0.18 (Acute), clade B, on pseudovirus (HIV-1)
[4] = molecular target: HIV-1 Env of isolate MGRM-G-027 (HIV-1)
[5] = molecular target: HIV-1 Env of pseudovirus MGRM-F1-022 (HIV-1)
[6] = molecular target: HIV-1 Env of isolate MGRM-D-028 (clade D pseudovirus) (HIV-1)
[7] = molecular target: HIV-1 Env of pseudovirus MGRM-G-016 (HIV-1, clade G isolate MGRM-G-016)
[8] = molecular target: HIV-1 Env of isolate MGRM-G-016 (HIV-1)
[9] = molecular target: HIV-1 Env of isolate CAAN.A2 (Acute), clade B, on pseudovirus (HIV-1)
[10] = molecular target: HIV-1 Env of isolate MGRM-G-011 (HIV-1)
[11] = molecular target: HIV-1 Env of isolate MGRM-G-017 (HIV-1)
[12] = molecular target: HIV-1 Env of isolate MGRM-D-012 (clade D pseudovirus) (HIV-1)
[13] = molecular target: HIV-1 Env of isolate 98CN009 (pseudovirus) (HIV-1)
[14] = molecular target: HIV-1 Env of isolate MGRM-Chronic-B-020 (subtype B pseudovirus) (HIV-1)
[15] = molecular target: HIV-1 Env of isolate MGRM-F1-010 (pseudovirus) (HIV-1)
[16] = molecular target: HIV-1 Env of isolate MGRM-F1-022 (HIV-1)
[17] = molecular target: aMLV envelope (pseudovirus, negative control)
[18] = molecular target: HIV-1 Env of isolate MGRM-Chronic-B-017 (subtype B pseudovirus) (HIV-1)
[19] = molecular target: HIV-1 Env of isolate QH0692.42 (subtype B pseudovirus) (HIV-1)
[20] = molecular target: HIV-1 Env of isolate 6535.3 (subtype B pseudovirus) (HIV-1)
[21] = molecular target: HIV-1 Env of isolate MGRM-F1-021 (HIV-1)
[22] = molecular target: HIV-1 Env of isolate MGRM-D-016 (pseudovirus) (HIV-1)
[23] = molecular target: HIV-1 92UG024 envelope glycoprotein (Env) on pseudovirus (HIV-1)
[24] = molecular target: HIV-1 93UG077 Env (pseudovirus, clade A) (HIV-1)
[25] = molecular target: HIV-1 JRFL Env (pseudovirus, clade B) (HIV-1)
[26] = molecular target: HIV-1 MGRM-AG-005 Env (pseudovirus) (HIV-1)
[27] = molecular target: HIV-1 Env of isolate MGRM-Chronic-B-010 (subtype B) (HIV-1)
[28] = molecular target: HIV-1 Env of isolate 92UG046 (HIV-1)
[29] = molecular target: HIV-1 Env of isolate 92UG024 (HIV-1)
[30] = molecular target: HIV-1 Env of isolate MGRM-A-002 (HIV-1)
[31] = molecular target: HIV-1 Env of isolate TRJ04551.58 (subtype B) (HIV-1)
[32] = molecular target: HIV-1 Env of isolate MGRM-Chronic-B-001 (subtype B) (HIV-1)
[33] = molecular target: HIV-1 Env of isolate MG RM-D-012 (HIV-1)
[34] = molecular target: HIV-1 envelope glycoprotein (Env) of isolate MGRM-C-025 (HIV-1)
[35] = molecular target: HIV-1 envelope glycoprotein (Env) of isolate MGRM-C-009 (HIV-1)
[36] = molecular target: HIV-1 Env of isolate SF162 (subtype B) (HIV-1) (UniProt P19550)
[37] = molecular target: HIV-1 Env of isolate QH0692.42 (subtype B) (HIV-1)
[38] = molecular target: HIV-1 Env of isolate MG RM-D-005 (HIV-1)
[39] = molecular target: HIV-1 Env of isolate MGRM-Chronic-B-017 (subtype B) (HIV-1)

4980_N08 (PGT-143) (antibody), sequence (VH): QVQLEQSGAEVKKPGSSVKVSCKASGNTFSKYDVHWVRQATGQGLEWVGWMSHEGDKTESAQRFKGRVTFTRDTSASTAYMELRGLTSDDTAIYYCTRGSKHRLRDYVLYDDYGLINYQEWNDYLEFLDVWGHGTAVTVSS
4980_N08 (PGT-143) (antibody), sequence (VL): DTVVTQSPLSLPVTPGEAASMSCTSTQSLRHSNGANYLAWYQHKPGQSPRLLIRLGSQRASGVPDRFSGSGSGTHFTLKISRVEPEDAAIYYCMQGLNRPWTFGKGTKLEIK
5345_I01 (PGT-137) (antibody), sequence (VH): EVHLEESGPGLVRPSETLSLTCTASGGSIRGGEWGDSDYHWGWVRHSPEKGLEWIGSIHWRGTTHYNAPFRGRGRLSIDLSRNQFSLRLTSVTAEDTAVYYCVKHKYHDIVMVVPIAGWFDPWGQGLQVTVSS
5345_I01 (PGT-137) (antibody), sequence (VL): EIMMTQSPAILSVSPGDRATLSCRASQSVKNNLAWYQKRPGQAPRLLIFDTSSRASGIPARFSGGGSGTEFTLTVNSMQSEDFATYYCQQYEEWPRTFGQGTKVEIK
4995_E20 (PGT-142) (antibody), sequence (VH): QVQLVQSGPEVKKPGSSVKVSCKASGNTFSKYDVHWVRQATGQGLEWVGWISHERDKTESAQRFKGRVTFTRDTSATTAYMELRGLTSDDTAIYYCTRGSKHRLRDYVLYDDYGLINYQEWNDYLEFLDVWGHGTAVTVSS
4995_E20 (PGT-142) (antibody), sequence (VL): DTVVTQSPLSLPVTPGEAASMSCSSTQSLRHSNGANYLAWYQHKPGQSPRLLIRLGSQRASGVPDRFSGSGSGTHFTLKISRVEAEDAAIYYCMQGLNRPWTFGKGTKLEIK
4993_K13 (PGT-141) (antibody), sequence (VH): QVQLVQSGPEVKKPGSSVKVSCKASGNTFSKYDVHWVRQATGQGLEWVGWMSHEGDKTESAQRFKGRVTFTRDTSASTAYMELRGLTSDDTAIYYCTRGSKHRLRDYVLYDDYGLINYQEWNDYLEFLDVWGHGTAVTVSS
4970_K22 (PGT-144) (antibody), sequence (VH): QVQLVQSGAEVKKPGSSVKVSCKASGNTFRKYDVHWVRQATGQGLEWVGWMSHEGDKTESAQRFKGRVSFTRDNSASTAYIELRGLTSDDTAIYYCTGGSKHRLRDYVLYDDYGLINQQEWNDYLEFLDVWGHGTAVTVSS
4970_K22 (PGT-144) (antibody), sequence (VL): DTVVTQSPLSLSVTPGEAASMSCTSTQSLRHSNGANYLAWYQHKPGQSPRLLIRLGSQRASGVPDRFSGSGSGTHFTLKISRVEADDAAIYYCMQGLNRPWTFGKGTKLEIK

Row | Substance | IC50 (µg/mL), pseudovirus neutralization [1] | IC50 (µg/mL), pseudovirus neutralization [4] | IC50 (µg/mL), pseudovirus neutralization [8] | IC50 (µg/mL), pseudovirus neutralization [10] | IC50 (µg/mL), pseudovirus neutralization [11] | IC50, pseudovirus neutralization [13] | IC50 (µg/mL), pseudovirus neutralization [14] | IC50, pseudovirus neutralization [15] | IC50 (µg/mL), pseudovirus neutralization [16] | neutralization IC50 (pseudovirus) [17] | IC50 (µg/mL), pseudovirus neutralization [18] | IC50 (µg/mL), pseudovirus neutralization [19] | IC50 (µg/mL), pseudovirus neutralization [20] | IC50 (µg/mL), pseudovirus neutralization [21] | IC50, pseudovirus neutralization [22] | further results
1 | 1496_C09 (PG9) (TCN-109) (antibody) | 6.6 µg/mL | 0.007 µg/mL | 1.36 µg/mL | 0.335 µg/mL | 0.104 µg/mL |  |  |  |  |  |  |  |  |  |  | IC50 (µg/ml), pseudovirus neutralization [2]: 0.07 µg/mL; IC50 (µg/ml), pseudovirus neutralization [3]: 12.4 µg/mL; IC50 (µg/ml), pseudovirus neutralization [5]: 0.06 µg/mL; IC50 (µg/ml), pseudovirus neutralization [6]: 4.39 µg/mL; IC50 (µg/ml), pseudovirus neutralization [7]: 0.4 µg/mL; IC50 (µg/ml), pseudovirus neutralization [9]: 5.67 µg/mL; IC50 (µg/ml), pseudovirus neutralization [12]: 9.31 µg/mL
2 | 4838_L06 (PGT-121) (antibody) |  |  |  |  |  | 0.009 µg/mL | 0.004 µg/mL | 0.016 µg/mL | 0.104 µg/mL | > 10 µg/mL | > 50 µg/mL | 0.823 µg/mL | 0.005 µg/mL | 0.099 µg/mL | > 50 µg/mL | 
3 | 4858_P08 (PGT-123) (antibody) |  |  |  |  |  | 0.007 µg/mL | 0.005 µg/mL | 0.016 µg/mL | 0.075 µg/mL | > 10 µg/mL | > 50 µg/mL | 0.158 µg/mL | 0.004 µg/mL | 0.307 µg/mL | > 50 µg/mL | neutralization IC50 [23]: > 10 µg/mL; neutralization IC80 [23]: > 10 µg/mL; neutralization IC90 [23]: > 10 µg/mL; neutralization IC95 [23]: > 10 µg/mL; IC50 neutralization [24]: 0.0303 µg/mL; IC50 neutralization [25]: 0.0283 µg/mL; neutralization IC50 (pseudovirus) [26]: 0.104 µg/mL
4 | 4877_D15 (PGT-122) (antibody) |  |  |  |  |  | 0.013 µg/mL | 0.005 µg/mL | 0.024 µg/mL | 0.277 µg/mL | > 10 µg/mL | 5.66 µg/mL | 0.493 µg/mL | 0.006 µg/mL | 2.3 µg/mL | > 50 µg/mL | IC50 neutralization [24]: 0.191 µg/mL; IC50 neutralization [25]: 0.0471 µg/mL; neutralization IC50 (pseudovirus) [26]: > 10 µg/mL
5 | 4970_K22 (PGT-144) (antibody) | > 50 µg/mL | > 50 µg/mL | > 50 µg/mL | 1.58 µg/mL | 9.97 µg/mL |  |  |  |  |  |  |  |  |  |  | IC50 (neutralizing activity, pseudovirus) [26]: > 10 µg/mL
6 | 4980_N08 (PGT-143) (antibody) | > 50 µg/mL | > 50 µg/mL | 7.6 µg/mL | 0.074 µg/mL | 0.107 µg/mL |  |  |  |  |  |  |  |  |  |  | IC50 (neutralizing activity, pseudovirus) [26]: 0.244 µg/mL
7 | 4993_K13 (PGT-141) (antibody) | > 50 µg/mL | > 50 µg/mL | 4.69 µg/mL | 0.086 µg/mL | 0.164 µg/mL |  |  |  |  |  |  |  |  |  |  | IC50 (neutralizing activity, pseudovirus) [26]: 0.392 µg/mL
8 | 4995_E20 (PGT-142) (antibody) | > 50 µg/mL | > 50 µg/mL | 8.17 µg/mL | 0.046 µg/mL | 0.125 µg/mL |  |  |  |  |  |  |  |  |  |  | IC50 (neutralizing activity, pseudovirus) [26]: 0.22 µg/mL
9 | 5114_A19 (PGT-128) (antibody) |  |  |  |  |  |  |  |  |  |  |  |  |  |  |  | IC50 neutralization [27]: 0.004 µg/mL; IC50 (µg/mL), pseudovirus neutralization [28]: > 50 µg/mL; IC50 (µg/mL), pseudovirus neutralization [29]: > 50 µg/mL; IC50 [30]: 0.149 µg/mL; IC50 neutralization [31]: 0.019 µg/mL; IC50 neutralization [32]: > 50 µg/mL; IC50 (µg/mL), pseudovirus neutralization [33]: > 50 µg/mL; IC50 (µg/mL), pseudovirus neutralization [34]: 10.5 µg/mL; IC50 (µg/mL), pseudovirus neutralization [35]: > 50 µg/mL; IC50 neutralization [36]: 0.007 µg/mL; IC50 neutralization [37]: 0.029 µg/mL; IC50 (µg/mL), pseudovirus neutralization [38]: 0.051 µg/mL; IC50 neutralization [39]: > 50 µg/mL
10 | 5123_A06 (PGT-125) (antibody) |  |  |  |  |  | 0.03 µg/mL | 0.087 µg/mL | > 50 µg/mL | > 50 µg/mL | > 10 µg/mL | > 50 µg/mL | 0.048 µg/mL | 0.01 µg/mL | > 50 µg/mL | 0.12 µg/mL | IC50 neutralization [24]: 0.0262 µg/mL; IC50 neutralization [25]: 0.0156 µg/mL; neutralization IC50 (pseudovirus) [26]: > 10 µg/mL
11 | 5136_H01 (PGT-131) (antibody) |  |  |  |  |  |  |  |  |  |  |  |  |  |  |  | IC50 neutralization [27]: 0.016 µg/mL; IC50 (µg/mL), pseudovirus neutralization [28]: > 50 µg/mL; IC50 (µg/mL), pseudovirus neutralization [29]: > 50 µg/mL; IC50 [30]: > 50 µg/mL; IC50 neutralization [31]: 0.088 µg/mL; IC50 neutralization [32]: > 50 µg/mL; IC50 (µg/mL), pseudovirus neutralization [33]: > 50 µg/mL; IC50 (µg/mL), pseudovirus neutralization [34]: > 50 µg/mL; IC50 (µg/mL), pseudovirus neutralization [35]: > 50 µg/mL; IC50 neutralization [36]: 0.025 µg/mL; IC50 neutralization [37]: > 50 µg/mL; IC50 (µg/mL), pseudovirus neutralization [38]: > 50 µg/mL; IC50 neutralization [39]: > 50 µg/mL
12 | 5141_B17 (PGT-126) (antibody) |  |  |  |  |  | 0.019 µg/mL | 0.021 µg/mL | > 50 µg/mL | > 50 µg/mL | > 10 µg/mL | > 50 µg/mL | 0.048 µg/mL | 0.022 µg/mL | > 50 µg/mL | > 50 µg/mL | IC50, pseudovirus neutralization [23]: > 10 µg/mL; IC80 (pseudovirus neutralization) [23]: > 10 µg/mL; IC90 (pseudovirus neutralization) [23]: > 10 µg/mL; IC95 (pseudovirus neutralization) [23]: > 10 µg/mL; IC50 neutralization [24]: 0.0256 µg/mL; IC50 neutralization [25]: 0.014 µg/mL; neutralization IC50 (pseudovirus) [26]: 1.35 µg/mL
13 | 5145_B14 (PGT-127) (antibody) |  |  |  |  |  | 0.09 µg/mL | 0.05 µg/mL | > 50 µg/mL | > 50 µg/mL |  | > 50 µg/mL | 0.129 µg/mL | 0.02 µg/mL | > 50 µg/mL | > 50 µg/mL | 
14 | 5345_I01 (PGT-137) (antibody) |  |  |  |  |  |  |  |  |  |  |  |  |  |  |  | IC50 neutralization [27]: > 50 µg/mL; IC50 (µg/mL), pseudovirus neutralization [28]: > 50 µg/mL; IC50 (µg/mL), pseudovirus neutralization [29]: 0.106 µg/mL; IC50 [30]: > 50 µg/mL; IC50 neutralization [31]: > 50 µg/mL; IC50 neutralization [32]: > 50 µg/mL; IC50 (µg/mL), pseudovirus neutralization [33]: > 50 µg/mL; IC50 (µg/mL), pseudovirus neutralization [34]: > 50 µg/mL; IC50 (µg/mL), pseudovirus neutralization [35]: > 50 µg/mL; IC50 neutralization [36]: 3.41 µg/mL; IC50 neutralization [37]: > 50 µg/mL; IC50 (µg/mL), pseudovirus neutralization [38]: > 50 µg/mL; IC50 neutralization [39]: > 50 µg/mL
15 | PGV04 (antibody) | 0.333 µg/mL | 0.125 µg/mL | 0.019 µg/mL | 0.78 µg/mL | 0.065 µg/mL |  |  |  |  |  |  |  |  |  |  | 
16 | VRC01 (antibody) | 0.548 µg/mL | 0.36 µg/mL | 0.063 µg/mL | 0.065 µg/mL | 0.124 µg/mL |  |  |  |  |  |  |  |  |  |  | IC50 [16]: 0.055 µg/mL; IC50 [33]: 0.216 µg/mL; IC50 [21]: 0.039 µg/mL
